Results reported in patent US20070009511A1 (Bristol-Myers Squibb, published 2007).

Target: T1, CD86Ig (UniProt P42081 24-247)
T1 construct: extracellular domain; Immobilized on BIAcore chips; also called soluble CD86Ig; B7-2
Assay: SPR, CD86Ig immobilized, monomer against dimer

T1 sequence (P42081 24-247): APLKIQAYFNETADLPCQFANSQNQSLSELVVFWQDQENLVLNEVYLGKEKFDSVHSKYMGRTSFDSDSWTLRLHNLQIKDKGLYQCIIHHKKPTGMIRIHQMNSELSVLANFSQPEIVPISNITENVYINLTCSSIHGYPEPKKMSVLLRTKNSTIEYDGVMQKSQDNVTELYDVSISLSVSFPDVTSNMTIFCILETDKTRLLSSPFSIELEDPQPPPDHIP

fold lower binding affinity than the respective dimer (L104EA29YIg): 35 to 80 fold
B1: L104EA29YXC120S (receptor)
chain: MHVAQPAVVLASSRGIASFVCEYASPGKYTEVRVTVLRQADSQVTEVCAATYMMGNELTFLDDSICTGTSSGNQVNLTIQGLRAMDTGLYICKVELMYPPPYYEGIGNGTQIYVIDPEPSPDSD
notes: also called single chain L104EA29Y extracellular domain
